Test results: patent US20240164355

Biological target: Ubiquitin-AMC (Ub-AMC) (UniProt P0CG48)

With CidB* (CidB-C1025A catalytic mutant) the Ub-AMC hydrolysis was “The CidB-C1025A catalytic mutant was inactive against Ub-AMC (data not shown)”.
